Measured values from patent US20200297818A1 (ZEALAND PHARMA A S, published 2020).
*1 amine or outer side, *2 acyl side, *3 side chain or, on linkers, in order; H or OH if unused. Side-chain parts run from the residue outwards. [ ]: non-standard residue; d: D form. The star is where a group is joined. C20 diacid = O=C(O)CCCCCCCCCCCCCCCCCCC(=O)*; γGlu = O=C(O)[C@H](CCC(=O)[*:2])N[*:1]; AEEA = NCCOCCOCC(=O)O; Aib = CC(C)(N)C(=O)O

Legend:
[1] = target: human glucagon-like peptide 1 receptor (GLP-1 R) (human, UniProt P43220 24-463); assay: cell-based or functional assay
[2] = target: T1, human GLP-2 receptor (hGLP2-R) (human, UniProt O95838 1-553); assay: cell-based or functional assay
T1 sequence (looked up): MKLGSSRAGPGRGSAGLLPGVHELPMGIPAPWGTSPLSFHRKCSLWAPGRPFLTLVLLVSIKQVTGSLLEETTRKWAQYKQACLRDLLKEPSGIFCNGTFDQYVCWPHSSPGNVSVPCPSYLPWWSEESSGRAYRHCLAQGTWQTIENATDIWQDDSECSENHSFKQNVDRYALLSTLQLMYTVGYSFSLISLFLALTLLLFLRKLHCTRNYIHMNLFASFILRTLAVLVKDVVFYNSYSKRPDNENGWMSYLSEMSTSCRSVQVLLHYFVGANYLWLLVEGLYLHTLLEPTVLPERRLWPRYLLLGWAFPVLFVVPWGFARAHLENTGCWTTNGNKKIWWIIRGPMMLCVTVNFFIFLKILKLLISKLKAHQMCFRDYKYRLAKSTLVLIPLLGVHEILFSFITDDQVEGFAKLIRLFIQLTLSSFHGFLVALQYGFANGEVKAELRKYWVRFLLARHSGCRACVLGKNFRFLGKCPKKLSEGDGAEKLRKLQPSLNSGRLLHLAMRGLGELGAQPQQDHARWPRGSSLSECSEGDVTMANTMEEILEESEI

B1: Compound 30 (peptide)
peptide: HXEGSFTSELATILDXQAARDFIAWLIRHKITD
HELM: PEPTIDE1{H.[Aib].E.G.S.F.T.S.E.L.A.T.I.L.D.K.Q.A.A.R.D.F.I.A.W.L.I.R.H.K.I.T.D}|PEPTIDE2{[O=C(O)CCCCCCCCCCCCCCCCC(=O)[*:2]].[gGlu]}$PEPTIDE1,PEPTIDE2,16:R3-2:R2$$$V2.0
SMILES: CC[C@H](C)[C@H](NC(=O)[C@H](Cc1ccccc1)NC(=O)[C@H](CC(=O)O)NC(=O)[C@H](CCCNC(=N)N)NC(=O)[C@H](C)NC(=O)[C@H](C)NC(=O)[C@H](CCC(N)=O)NC(=O)[C@H](CCCCNC(=O)CC[C@H](NC(=O)CCCCCCCCCCCCCCCCC(=O)O)C(=O)O)NC(=O)[C@H](CC(=O)O)NC(=O)[C@H](CC(C)C)NC(=O)[C@@H](NC(=O)[C@@H](NC(=O)[C@H](C)NC(=O)[C@H](CC(C)C)NC(=O)[C@H](CCC(=O)O)NC(=O)[C@H](CO)NC(=O)[C@@H](NC(=O)[C@H](Cc1ccccc1)NC(=O)[C@H](CO)NC(=O)CNC(=O)[C@H](CCC(=O)O)NC(=O)C(C)(C)NC(=O)[C@@H](N)Cc1c[nH]cn1)[C@@H](C)O)[C@@H](C)O)[C@@H](C)CC)C(=O)N[C@@H](C)C(=O)N[C@@H](Cc1c[nH]c2ccccc12)C(=O)N[C@@H](CC(C)C)C(=O)N[C@H](C(=O)N[C@@H](CCCNC(=N)N)C(=O)N[C@@H](Cc1c[nH]cn1)C(=O)N[C@@H](CCCCN)C(=O)N[C@H](C(=O)N[C@H](C(=O)N[C@@H](CC(=O)O)C(=O)O)[C@@H](C)O)[C@@H](C)CC)[C@@H](C)CC
[1]
  EC50 GLP-1 (nM); cAMP response: 0.31 nM
[2]
  EC50 GLP-2 (nM); cAMP response: 0.38 nM

B2: Compound 33 (peptide)
peptide: HXEGSFTSELATILDXQAARDFIAWLYQHKITD
HELM: PEPTIDE1{H.[Aib].E.G.S.F.T.S.E.L.A.T.I.L.D.K.Q.A.A.R.D.F.I.A.W.L.Y.Q.H.K.I.T.D}|PEPTIDE2{[O=C(O)CCCCCCCCCCCCCCCCC(=O)[*:2]].[gGlu].[O=C(COCCOCCN[*:1])[*:2]]}$PEPTIDE1,PEPTIDE2,16:R3-3:R2$$$V2.0
SMILES: CC[C@H](C)[C@H](NC(=O)[C@H](Cc1ccccc1)NC(=O)[C@H](CC(=O)O)NC(=O)[C@H](CCCNC(=N)N)NC(=O)[C@H](C)NC(=O)[C@H](C)NC(=O)[C@H](CCC(N)=O)NC(=O)[C@H](CCCCNC(=O)COCCOCCNC(=O)CC[C@H](NC(=O)CCCCCCCCCCCCCCCCC(=O)O)C(=O)O)NC(=O)[C@H](CC(=O)O)NC(=O)[C@H](CC(C)C)NC(=O)[C@@H](NC(=O)[C@@H](NC(=O)[C@H](C)NC(=O)[C@H](CC(C)C)NC(=O)[C@H](CCC(=O)O)NC(=O)[C@H](CO)NC(=O)[C@@H](NC(=O)[C@H](Cc1ccccc1)NC(=O)[C@H](CO)NC(=O)CNC(=O)[C@H](CCC(=O)O)NC(=O)C(C)(C)NC(=O)[C@@H](N)Cc1c[nH]cn1)[C@@H](C)O)[C@@H](C)O)[C@@H](C)CC)C(=O)N[C@@H](C)C(=O)N[C@@H](Cc1c[nH]c2ccccc12)C(=O)N[C@@H](CC(C)C)C(=O)N[C@@H](Cc1ccc(O)cc1)C(=O)N[C@@H](CCC(N)=O)C(=O)N[C@@H](Cc1c[nH]cn1)C(=O)N[C@@H](CCCCN)C(=O)N[C@H](C(=O)N[C@H](C(=O)N[C@@H](CC(=O)O)C(=O)O)[C@@H](C)O)[C@@H](C)CC
[1]
  EC50 GLP-1 (nM); cAMP response: 0.85 nM
[2]
  EC50 GLP-2 (nM); cAMP response: 0.072 nM

B3: Compound 32 (peptide)
peptide: HXEGSFTSELATILDXQAARDFIAWLQQHKITD
HELM: PEPTIDE1{H.[Aib].E.G.S.F.T.S.E.L.A.T.I.L.D.K.Q.A.A.R.D.F.I.A.W.L.Q.Q.H.K.I.T.D}|PEPTIDE2{[CCCCCCCCCCCCCCCC(=O)[*:2]].[bAla]}$PEPTIDE1,PEPTIDE2,16:R3-2:R2$$$V2.0
SMILES: CCCCCCCCCCCCCCCC(=O)NCCC(=O)NCCCC[C@H](NC(=O)[C@H](CC(=O)O)NC(=O)[C@H](CC(C)C)NC(=O)[C@@H](NC(=O)[C@@H](NC(=O)[C@H](C)NC(=O)[C@H](CC(C)C)NC(=O)[C@H](CCC(=O)O)NC(=O)[C@H](CO)NC(=O)[C@@H](NC(=O)[C@H](Cc1ccccc1)NC(=O)[C@H](CO)NC(=O)CNC(=O)[C@H](CCC(=O)O)NC(=O)C(C)(C)NC(=O)[C@@H](N)Cc1c[nH]cn1)[C@@H](C)O)[C@@H](C)O)[C@@H](C)CC)C(=O)N[C@@H](CCC(N)=O)C(=O)N[C@@H](C)C(=O)N[C@@H](C)C(=O)N[C@@H](CCCNC(=N)N)C(=O)N[C@@H](CC(=O)O)C(=O)N[C@@H](Cc1ccccc1)C(=O)N[C@H](C(=O)N[C@@H](C)C(=O)N[C@@H](Cc1c[nH]c2ccccc12)C(=O)N[C@@H](CC(C)C)C(=O)N[C@@H](CCC(N)=O)C(=O)N[C@@H](CCC(N)=O)C(=O)N[C@@H](Cc1c[nH]cn1)C(=O)N[C@@H](CCCCN)C(=O)N[C@H](C(=O)N[C@H](C(=O)N[C@@H](CC(=O)O)C(=O)O)[C@@H](C)O)[C@@H](C)CC)[C@@H](C)CC
[1]
  EC50 GLP-1 (nM); cAMP response: 0.38 nM
[2]
  EC50 GLP-2 (nM); cAMP response: 0.46 nM

B4: Compound 31 (peptide)
peptide: HXEGSFTSELATILDXQAARDFIAWLISHKITD
HELM: PEPTIDE1{H.[Aib].E.G.S.F.T.S.E.L.A.T.I.L.D.K.Q.A.A.R.D.F.I.A.W.L.I.S.H.K.I.T.D}|PEPTIDE2{[O=C(O)CCCCCCCCCCCCCCCCC(=O)[*:2]].[gGlu]}$PEPTIDE1,PEPTIDE2,16:R3-2:R2$$$V2.0
SMILES: CC[C@H](C)[C@H](NC(=O)[C@H](Cc1ccccc1)NC(=O)[C@H](CC(=O)O)NC(=O)[C@H](CCCNC(=N)N)NC(=O)[C@H](C)NC(=O)[C@H](C)NC(=O)[C@H](CCC(N)=O)NC(=O)[C@H](CCCCNC(=O)CC[C@H](NC(=O)CCCCCCCCCCCCCCCCC(=O)O)C(=O)O)NC(=O)[C@H](CC(=O)O)NC(=O)[C@H](CC(C)C)NC(=O)[C@@H](NC(=O)[C@@H](NC(=O)[C@H](C)NC(=O)[C@H](CC(C)C)NC(=O)[C@H](CCC(=O)O)NC(=O)[C@H](CO)NC(=O)[C@@H](NC(=O)[C@H](Cc1ccccc1)NC(=O)[C@H](CO)NC(=O)CNC(=O)[C@H](CCC(=O)O)NC(=O)C(C)(C)NC(=O)[C@@H](N)Cc1c[nH]cn1)[C@@H](C)O)[C@@H](C)O)[C@@H](C)CC)C(=O)N[C@@H](C)C(=O)N[C@@H](Cc1c[nH]c2ccccc12)C(=O)N[C@@H](CC(C)C)C(=O)N[C@H](C(=O)N[C@@H](CO)C(=O)N[C@@H](Cc1c[nH]cn1)C(=O)N[C@@H](CCCCN)C(=O)N[C@H](C(=O)N[C@H](C(=O)N[C@@H](CC(=O)O)C(=O)O)[C@@H](C)O)[C@@H](C)CC)[C@@H](C)CC
[1]
  EC50 GLP-1 (nM); cAMP response: 0.27 nM
[2]
  EC50 GLP-2 (nM); cAMP response: 0.24 nM

B5: reference compound B (peptide)
peptide: HXEGSFSSELATILDXQAARDFIAWLIQHKITD
HELM: PEPTIDE1{H.[Aib].E.G.S.F.S.S.E.L.A.T.I.L.D.K.Q.A.A.R.D.F.I.A.W.L.I.Q.H.K.I.T.D}|PEPTIDE2{[O=C(O)CCCCCCCCCCCCCCCCC(=O)[*:2]].[gGlu]}$PEPTIDE1,PEPTIDE2,16:R3-2:R2$$$V2.0
SMILES: CC[C@H](C)[C@H](NC(=O)[C@H](Cc1ccccc1)NC(=O)[C@H](CC(=O)O)NC(=O)[C@H](CCCNC(=N)N)NC(=O)[C@H](C)NC(=O)[C@H](C)NC(=O)[C@H](CCC(N)=O)NC(=O)[C@H](CCCCNC(=O)CC[C@H](NC(=O)CCCCCCCCCCCCCCCCC(=O)O)C(=O)O)NC(=O)[C@H](CC(=O)O)NC(=O)[C@H](CC(C)C)NC(=O)[C@@H](NC(=O)[C@@H](NC(=O)[C@H](C)NC(=O)[C@H](CC(C)C)NC(=O)[C@H](CCC(=O)O)NC(=O)[C@H](CO)NC(=O)[C@H](CO)NC(=O)[C@H](Cc1ccccc1)NC(=O)[C@H](CO)NC(=O)CNC(=O)[C@H](CCC(=O)O)NC(=O)C(C)(C)NC(=O)[C@@H](N)Cc1c[nH]cn1)[C@@H](C)O)[C@@H](C)CC)C(=O)N[C@@H](C)C(=O)N[C@@H](Cc1c[nH]c2ccccc12)C(=O)N[C@@H](CC(C)C)C(=O)N[C@H](C(=O)N[C@@H](CCC(N)=O)C(=O)N[C@@H](Cc1c[nH]cn1)C(=O)N[C@@H](CCCCN)C(=O)N[C@H](C(=O)N[C@H](C(=O)N[C@@H](CC(=O)O)C(=O)O)[C@@H](C)O)[C@@H](C)CC)[C@@H](C)CC
[1]
  EC50 GLP-1 (nM); cAMP response: 3.9 nM
[2]
  EC50 GLP-2 (nM); cAMP response: 0.28 nM

B6: Compound 34 (peptide)
peptide: H-H[Aib]EGSFTSELATILDK([AEEA-AEEA-γGlu-C20 diacid])QAARDFIAWLKQHKITD-OH
SMILES: CC[C@H](C)[C@H](NC(=O)[C@H](Cc1ccccc1)NC(=O)[C@H](CC(=O)O)NC(=O)[C@H](CCCNC(=N)N)NC(=O)[C@H](C)NC(=O)[C@H](C)NC(=O)[C@H](CCC(N)=O)NC(=O)[C@H](CCCCNC(=O)COCCOCCNC(=O)COCCOCCNC(=O)CC[C@H](NC(=O)CCCCCCCCCCCCCCCCCCC(=O)O)C(=O)O)NC(=O)[C@H](CC(=O)O)NC(=O)[C@H](CC(C)C)NC(=O)[C@@H](NC(=O)[C@@H](NC(=O)[C@H](C)NC(=O)[C@H](CC(C)C)NC(=O)[C@H](CCC(=O)O)NC(=O)[C@H](CO)NC(=O)[C@@H](NC(=O)[C@H](Cc1ccccc1)NC(=O)[C@H](CO)NC(=O)CNC(=O)[C@H](CCC(=O)O)NC(=O)C(C)(C)NC(=O)[C@@H](N)Cc1c[nH]cn1)[C@@H](C)O)[C@@H](C)O)[C@@H](C)CC)C(=O)N[C@@H](C)C(=O)N[C@@H](Cc1c[nH]c2ccccc12)C(=O)N[C@@H](CC(C)C)C(=O)N[C@@H](CCCCN)C(=O)N[C@@H](CCC(N)=O)C(=O)N[C@@H](Cc1c[nH]cn1)C(=O)N[C@@H](CCCCN)C(=O)N[C@H](C(=O)N[C@H](C(=O)N[C@@H](CC(=O)O)C(=O)O)[C@@H](C)O)[C@@H](C)CC
[1]
  EC50 GLP-1 (nM); cAMP response: 0.28 nM
[2]
  EC50 GLP-2 (nM); cAMP response: 0.13 nM
